Test results published in paper PMC4434323.

What follows are sequences tested against T1, Y61A9LA.9 (Y61A9LA.9) (Caenorhabditis elegans) (UniProt Q9N312).
T1 sequence: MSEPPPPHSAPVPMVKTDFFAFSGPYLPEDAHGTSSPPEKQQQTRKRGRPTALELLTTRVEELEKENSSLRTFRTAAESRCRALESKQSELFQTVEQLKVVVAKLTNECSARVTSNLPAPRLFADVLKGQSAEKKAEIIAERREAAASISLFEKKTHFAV

Sequence	binding signal (PBM E-score (-0.5 to 0.5))
AAAATAAT (double strand) [8-mer AAAATAAT]	0.451
AAATAATT (double strand) [8-mer AAATAATT]	0.457
AATAATAA (double strand) [8-mer AATAATAA]	0.461
AATTAATT (double strand) [8-mer AATTAATT]	0.454
ATTTAAAT (double strand) [8-mer ATTTAAAT]	0.47
AATATATT (double strand) [8-mer AATATATT]	0.465
AAATATAT (double strand) [8-mer AAATATAT]	0.452
ATATTAAT (double strand) [8-mer ATATTAAT]	0.453
AATATTAA (double strand) [8-mer AATATTAA]	0.455
AAATAAAT (double strand) [8-mer AAATAAAT]	0.452
TAAAATAA (double strand) [8-mer TAAAATAA]	0.453

These sequences were tested against T2, dmd-6 (F13G11.1) (Caenorhabditis elegans) (UniProt O62159).
T2 sequence: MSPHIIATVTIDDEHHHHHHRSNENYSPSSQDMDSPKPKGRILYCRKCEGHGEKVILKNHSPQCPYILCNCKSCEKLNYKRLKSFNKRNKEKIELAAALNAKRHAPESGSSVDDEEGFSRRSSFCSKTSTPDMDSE

Sequence	binding signal (PBM E-score (-0.5 to 0.5))
AAATATAT (double strand) [8-mer AAATATAT]	0.48

The sequences below were run against T3, Y75B8A.6 (Y75B8A.6) (Caenorhabditis elegans) (UniProt A0A168H365).
T3 sequence: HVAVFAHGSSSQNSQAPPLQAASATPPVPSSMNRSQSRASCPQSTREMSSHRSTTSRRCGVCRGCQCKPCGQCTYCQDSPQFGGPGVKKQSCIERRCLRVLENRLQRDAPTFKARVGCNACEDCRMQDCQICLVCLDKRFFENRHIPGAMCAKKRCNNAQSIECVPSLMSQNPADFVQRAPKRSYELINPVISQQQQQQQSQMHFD

Sequence	binding signal (PBM E-score (-0.5 to 0.5))
CCCGCGGG (double strand) [8-mer CCCGCGGG]	0.451
CGCGCGGC (double strand) [8-mer CGCGCGGC]	0.451
CCGCGCGG (double strand) [8-mer CCGCGCGG]	0.465
CGCGGAAA (double strand) [8-mer CGCGGAAA]	0.457
CCGCGGGA (double strand) [8-mer CCGCGGGA]	0.458
CGCGGCGC (double strand) [8-mer CGCGGCGC]	0.461
TCCGCGGA (double strand) [8-mer TCCGCGGA]	0.471
CGCGCGCG (double strand) [8-mer CGCGCGCG]	0.476
GCGCGCGC (double strand) [8-mer GCGCGCGC]	0.465
CCGCGGAA (double strand) [8-mer CCGCGGAA]	0.468
CGCGGAAC (double strand) [8-mer CGCGGAAC]	0.454
GCGCGCAA (double strand) [8-mer GCGCGCAA]	0.458
CCGCGCGC (double strand) [8-mer CCGCGCGC]	0.462

What follows are sequences tested against T4, tbx-38 (C24H11.3) (Caenorhabditis elegans) (UniProt Q9XVD5).
T4 sequence: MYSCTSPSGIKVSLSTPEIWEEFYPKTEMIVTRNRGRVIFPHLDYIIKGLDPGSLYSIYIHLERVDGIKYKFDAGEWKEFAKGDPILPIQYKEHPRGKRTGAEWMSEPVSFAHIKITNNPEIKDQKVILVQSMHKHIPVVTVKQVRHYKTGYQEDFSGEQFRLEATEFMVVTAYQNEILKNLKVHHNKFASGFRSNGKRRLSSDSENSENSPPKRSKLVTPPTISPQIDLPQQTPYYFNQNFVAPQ

Sequence	binding signal (PBM E-score (-0.5 to 0.5))
GGTGTTAA (double strand) [8-mer GGTGTTAA]	0.488

The sequences below were run against T5, die-1 (C18D1.1) (Caenorhabditis elegans) (UniProt A0A131MCR4).
T5 sequence: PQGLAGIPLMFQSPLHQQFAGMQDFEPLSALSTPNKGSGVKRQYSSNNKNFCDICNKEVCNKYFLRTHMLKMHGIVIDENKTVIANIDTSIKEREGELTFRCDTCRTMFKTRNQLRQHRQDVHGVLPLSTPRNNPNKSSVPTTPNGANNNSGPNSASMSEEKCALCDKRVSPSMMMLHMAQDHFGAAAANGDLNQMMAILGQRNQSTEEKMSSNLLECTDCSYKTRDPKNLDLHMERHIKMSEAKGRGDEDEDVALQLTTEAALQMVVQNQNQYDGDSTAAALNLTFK

Sequence	binding signal (PBM E-score (-0.5 to 0.5))
ATTTAAAT (double strand) [8-mer ATTTAAAT]	0.477

What follows are sequences tested against T6, ceh-51 (Y80D3A.3) (Caenorhabditis elegans) (UniProt Q9U1R1).
T6 sequence: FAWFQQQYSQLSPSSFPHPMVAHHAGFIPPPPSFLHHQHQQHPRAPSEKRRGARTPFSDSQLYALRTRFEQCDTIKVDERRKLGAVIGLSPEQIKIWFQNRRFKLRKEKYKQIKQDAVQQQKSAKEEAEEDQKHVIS

Sequence	binding signal (PBM E-score (-0.5 to 0.5))
ATATTAAT (double strand) [8-mer ATATTAAT]	0.467

The sequences below were run against T7, Y44A6D.3 (Y44A6D.3) (Caenorhabditis elegans) (UniProt Q9XXE0).
T7 sequence: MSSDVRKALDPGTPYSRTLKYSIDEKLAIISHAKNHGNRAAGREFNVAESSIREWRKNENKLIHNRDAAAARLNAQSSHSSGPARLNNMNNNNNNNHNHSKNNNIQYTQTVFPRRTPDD

Sequence	binding signal (PBM E-score (-0.5 to 0.5))
CCGCGCGG (double strand) [8-mer CCGCGCGG]	0.495

Each sequence was assayed against T8, ceh-52 (C07E3.5) (Caenorhabditis elegans) (UniProt Q17788).
T8 sequence: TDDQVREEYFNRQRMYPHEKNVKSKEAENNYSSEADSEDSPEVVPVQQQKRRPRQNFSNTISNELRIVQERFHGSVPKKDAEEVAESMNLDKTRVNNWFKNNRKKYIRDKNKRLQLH

Sequence	binding signal (PBM E-score (-0.5 to 0.5))
TAACTCTA (double strand) [8-mer TAACTCTA]	0.459
TAACTCCA (double strand) [8-mer TAACTCCA]	0.475
AGAGTTAT (double strand) [8-mer AGAGTTAT]	0.481
GGGAGTTA (double strand) [8-mer GGGAGTTA]	0.459
AAGAGTTA (double strand) [8-mer AAGAGTTA]	0.463
GGGGTTAA (double strand) [8-mer GGGGTTAA]	0.454
AGAGTTAA (double strand) [8-mer AGAGTTAA]	0.452
GAGTTATA (double strand) [8-mer GAGTTATA]	0.465
ATAACTCC (double strand) [8-mer ATAACTCC]	0.482
AGTGTTAT (double strand) [8-mer AGTGTTAT]	0.454
GGAGTTAA (double strand) [8-mer GGAGTTAA]	0.464
GGTGTTAA (double strand) [8-mer GGTGTTAA]	0.459
ATAACACC (double strand) [8-mer ATAACACC]	0.457

What follows are sequences tested against T9, eyg-1 (Y53C12C.1) (Caenorhabditis elegans) (UniProt O01996).
T9 sequence: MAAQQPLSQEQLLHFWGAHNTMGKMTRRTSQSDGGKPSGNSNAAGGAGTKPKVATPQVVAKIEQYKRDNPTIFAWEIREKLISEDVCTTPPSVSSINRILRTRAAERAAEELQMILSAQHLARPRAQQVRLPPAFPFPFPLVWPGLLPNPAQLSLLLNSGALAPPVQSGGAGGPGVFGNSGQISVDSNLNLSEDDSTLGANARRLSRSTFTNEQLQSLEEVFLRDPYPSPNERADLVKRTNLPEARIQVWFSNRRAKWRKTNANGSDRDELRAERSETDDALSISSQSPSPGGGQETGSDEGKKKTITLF

Sequence	binding signal (PBM E-score (-0.5 to 0.5))
AATTAATT (double strand) [8-mer AATTAATT]	0.489

The sequences below were run against T10, efl-2 (Y48C3A.17) (Caenorhabditis elegans) (UniProt A5HWA8).
T10 sequence: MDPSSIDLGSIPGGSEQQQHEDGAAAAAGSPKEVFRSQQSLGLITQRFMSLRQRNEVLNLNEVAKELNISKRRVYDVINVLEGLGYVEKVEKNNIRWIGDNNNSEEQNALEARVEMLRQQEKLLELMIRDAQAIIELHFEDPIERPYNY

Sequence	binding signal (PBM E-score (-0.5 to 0.5))
CGCGCGCG (double strand) [8-mer CGCGCGCG]	0.494
GCGCGCGC (double strand) [8-mer GCGCGCGC]	0.495

What follows are sequences tested against T11, tbx-43 (Y46E12A.4) (Caenorhabditis elegans) (UniProt Q1T6W8).
T11 sequence: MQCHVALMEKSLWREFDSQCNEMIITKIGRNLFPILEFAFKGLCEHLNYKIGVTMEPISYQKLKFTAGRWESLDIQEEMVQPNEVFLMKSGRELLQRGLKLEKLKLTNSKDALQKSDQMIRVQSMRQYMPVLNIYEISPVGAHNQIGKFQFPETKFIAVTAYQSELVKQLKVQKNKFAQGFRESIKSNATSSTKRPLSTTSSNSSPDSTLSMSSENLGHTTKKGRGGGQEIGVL

Sequence	binding signal (PBM E-score (-0.5 to 0.5))
GGTGTTAA (double strand) [8-mer GGTGTTAA]	0.492

Each sequence was assayed against T12, pax-2 (K06B9.5) (Caenorhabditis elegans) (UniProt Q21263).
T12 sequence: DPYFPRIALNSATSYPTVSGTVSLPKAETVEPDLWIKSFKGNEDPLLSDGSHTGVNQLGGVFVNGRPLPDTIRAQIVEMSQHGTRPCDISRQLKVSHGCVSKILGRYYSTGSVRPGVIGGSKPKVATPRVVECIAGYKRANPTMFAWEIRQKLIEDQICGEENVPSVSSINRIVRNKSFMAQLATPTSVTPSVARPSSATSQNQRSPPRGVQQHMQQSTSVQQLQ

Sequence	binding signal (PBM E-score (-0.5 to 0.5))
CGTGACGA (double strand) [8-mer CGTGACGA]	0.461
GTCACGCA (double strand) [8-mer GTCACGCA]	0.481
ACCGTGAC (double strand) [8-mer ACCGTGAC]	0.495
GTCACGGA (double strand) [8-mer GTCACGGA]	0.453
CGTCACGC (double strand) [8-mer CGTCACGC]	0.488
CCGTGACG (double strand) [8-mer CCGTGACG]	0.489
CGGTCACG (double strand) [8-mer CGGTCACG]	0.473
GGCGTGAC (double strand) [8-mer GGCGTGAC]	0.468
GCGTGACC (double strand) [8-mer GCGTGACC]	0.486
ACCATGAC (double strand) [8-mer ACCATGAC]	0.454
CGTGACCA (double strand) [8-mer CGTGACCA]	0.479
AGCGTGAC (double strand) [8-mer AGCGTGAC]	0.488
CCGTGACC (double strand) [8-mer CCGTGACC]	0.484

These sequences were tested against T13, ceh-23 (ZK652.5) (Caenorhabditis elegans) (UniProt P34663).
T13 sequence: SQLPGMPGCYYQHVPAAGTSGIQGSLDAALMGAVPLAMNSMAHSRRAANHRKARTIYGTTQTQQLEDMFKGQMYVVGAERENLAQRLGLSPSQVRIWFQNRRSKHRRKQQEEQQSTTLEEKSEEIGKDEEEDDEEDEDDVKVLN

Sequence	binding signal (PBM E-score (-0.5 to 0.5))
AATTAATT (double strand) [8-mer AATTAATT]	0.492
